Source: publication PMC7582152 (2020)

B1: wild-type canine cardiac calsequestrin (Casq2) [canine] / ER luminal domain of IRE1α (IRE1-NLD) [modified: covalently labeled with a red fluorescent tag (Monolith NT Protein Labeling Kit RED-NHS); covalently labeled with a red fluorescent … (parent complex)
chain 1: EEGLNFPTYDGKDRVVSLTEKNFKQVLKKYDVLCLYYHESVSSDKVAQKQFQLKEIVLELVAQVLEHKDIGFVMVDAKKEAKLAKKLGFDEEGSLYVLKGDRTIEFDGEFAADVLVEFLLDLIEDPVEIINSKLEVQAFERIEDQIKLIGFFKSEESEYYKAFEEAAEHFQPYIKFFATFDKGVAKKLSLKMNEVDFYEPFMDEPIAIPDKPYTEEELVEFVKEHQRPTLRRLRPEDMFETWEDDLNGIHIVAFAERSDPDGYEFLEILKQVARDNTDNPDLSIVWIDPDDFPLLVAYWEKTFKIDLFKPQIGVVNVTDADSVWMEIPDDDDLPTAEELEDWIEDVLSGKINTEDDDNEEGDDGDDDEDDDDDDGNNSDEESNDDSDDDDE
chain 2: IFGSTSTVTLPETLLFVSTLDGSLHAVSKRTGSIKWTLKEDPVLQVPTHVEEPAFLPDPNDGSLYTLGSKNNEGLTKLPFTIPELVQASPCRSSDGILYMGKKQDIWYVIDLLTGEKQQTLSSAFADSLCPSTSLLYLGRTEYTITMYDTKTRELRWNATYFDYAASLPEDDVDYKMSHFVSNGDGLVVTVDSESGDVLWIQNYASPVVAFYVWQREGLRKVMHINVAVETLRYLTFMSGEVGRITKWKYPFPKETEAKSKLTPTLYVGKYSTSLYASPSMVHEGVAVVPRGSTLPLLEGPQTDGVTIGDKGECVITPSTDVKFDPGLKSKNKLNYLRNYWLLIGHHETPLSASTKMLERFPNNLPKHRENVIPADSEKKSFEEVINLVDQTSENAPTTVSRDVEEKPAHAPARPEAPVDSMLKD

Variants of: B1
Experiment: microscale thermophoresis (MST); IRE1-NLD covalently labeled with a red fluorescent tag; increasing amounts of Casq2 or Casq2 mutant; three independent measurements; parent: 4.3e+03 nM; read off a plot

Row | Variant | Kd [µM]
1 | chain 1 EEGLNFPTYDGKDRVVSLTEKNFKQVLKKYDVLCLYYHESVSSDKVAQKQFQLKEIVLELVAQVLEHKDIGFVMVDAKKEAKLAKKLGFDEEGSLYVLKGDRTIEFDGEFAADVLVEFLLDLIEDPVEIINSKLEVQAFERIEDQIKLIGFFKSEESEYYKAFEEAAEHFQPYIKFFATFDKGVAKKLSLKMNEVDFYEPFMDEPIAIPDKPYTEEELVEFVKEHQRPTLRRLRPEDMFETWEDDLNGIHIVAFAERSDPDGYEFLEILKQVARDNTDNPDLSIVWIHPDDFPLLVAYWEKTFKIDLFKPQIGVVNVTDADSVWMEIPDDDDLPTAEELEDWIEDVLSGKINTEDDDNEEGDDGDDDEDDDDDDGNNSDEESNDDSDDDDE [chain 1 D288H] | ~3.3
2 | chain 1 EEGLNFPTYDGKDRVVSLTEKNFKQVLKKYDVLCLYYHESVSSDKVAQKQFQLKEIVLELVAQVLEHKDIGFVMVDAKKEAKLAKKLGFDEEGSLYVLKGDRTIEFDGEFAADVLVEFLLDLIEDPVEIINSKLEVQAFERIEDQIKHIGFFKSEESEYYKAFEEAAEHFQPYIKFFATFDKGVAKKLSLKMNEVDFYEPFMDEPIAIPDKPYTEEELVEFVKEHQRPTLRRLRPEDMFETWEDDLNGIHIVAFAERSDPDGYEFLEILKQVARDNTDNPDLSIVWIDPDDFPLLVAYWEKTFKIDLFKPQIGVVNVTDADSVWMEIPDDDDLPTAEELEDWIEDVLSGKINTEDDDNEEGDDGDDDEDDDDDDGNNSDEESNDDSDDDDE [chain 1 L148H] | ~2.8
3 | chain 1 EEGLNFPTYDGKDQVVSLTEKNFKQVLKKYDVLCLYYHESVSSDKVAQKQFQLKEIVLELVAQVLEHKDIGFVMVDAKKEAKLAKKLGFDEEGSLYVLKGDRTIEFDGEFAADVLVEFLLDLIEDPVEIINSKLEVQAFERIEDQIKLIGFFKSEESEYYKAFEEAAEHFQPYIKFFATFDKGVAKKLSLKMNEVDFYEPFMDEPIAIPDKPYTEEELVEFVKEHQRPTLRRLRPEDMFETWEDDLNGIHIVAFAERSDPDGYEFLEILKQVARDNTDNPDLSIVWIDPDDFPLLVAYWEKTFKIDLFKPQIGVVNVTDADSVWMEIPDDDDLPTAEELEDWIEDVLSGKINTEDDDNEEGDDGDDDEDDDDDDGNNSDEESNDDSDDDDE [chain 1 R14Q] | ~5.9

Continued by falling Kd, values first:

Row | Kd [µM] | Variant
4 | ~4.8 | chain 1 EEGLNFPTYDGKDRVVSLTEKNFKQVLKKYDVLCLYYHESVSSDKVAQKQFQLKEIVLELVAQVLEHKDIGFVMVDAKKEAKLAKKLGFDEEGSLYVLKGDRTIEFDGEFAADVLVEFLLDLIEDPVEIINSKLEVQAFERIEDQIKLIGFFKSEESEYYKAFEEAAEHFQPYIKFFATFDKGVAKKLSLKMNEVDFYEPFMDEPIAIPDKPYTEEELVEFVKEHQRPTLRRLRPEDMFETWEDDLNGIHIVAFAERSDPDGYEFLEILKQVARDNTDNPDLSIVWIDPDDFPLLVAYWEKTFKIDLFKPQIGVVNVTDADSVWMEIPDDDGLPTAEELEDWIEDVLSGKINTEDDDNEEGDDGDDDEDDDDDDGNNSDEESNDDSDDDDE [chain 1 D332G]
5 | ~4.3 | chain 1 EEGLNFPTYDGKDRVVSLTEKNFKQVLKKYDVLCLYYHESVSSDKVAQKQFQLKEIVLELVAQVLEHKDIGFVMVDAKKEAKLAKKLGFDEEGSLYVLKGDRTIEFDGEFAADVLVEFLLDLIEDPVEIINSKLEVQAFERIEDQIKLIGFFKSEESEYYKAFEEAAEHFQPYIKFFATFDKGVAKKLSLKMNEVDFYEPFMDEPIAIPDKPYTEEELVEFVKEHQRPTLRRLRPEDMFETWEDDLNGIHIVAFAERSDPDGYEFLEILKQVARDNTDNPDLSIVWIDPDDFPLLVAYWEKTFKIDLFKPQIRVVNVTDADSVWMEIPDDDDLPTAEELEDWIEDVLSGKINTEDDDNEEGDDGDDDEDDDDDDGNNSDEESNDDSDDDDE [chain 1 G313R]
6 | ~3.2 | chain 1 EEGLNFPTYDGKDRVVSLTEKNFKQVLKKYDVLCLYYHESVSSDKVAQKQFQLKEIVLELVAQVLEHKDIGFVMVDAKKEAKLAKKLGFDEEGSLYVLKGDRTIEFDGEFAADVLVEFLLDLIEDPVEIINSKLEVQAFERIEDQIKLIGFFKSEESEYYKAFEEAAEHFQPYIKFFATFDKGVAKKLSLKMNEVDFYEPFMDEPIAIPDKPYTEEELVEFVKEHQRPTLRRLRPEDMFETWEDDLNGIHIVAFAERSDPDGYEFLEILKQVARDNTDNPDLSIVWIDPDDFPLLVAYWEKTFKIDLFKSQIGVVNVTDADSVWMEIPDDDDLPTAEELEDWIEDVLSGKINTEDDDNEEGDDGDDDEDDDDDDGNNSDEESNDDSDDDDE [chain 1 P310S]
7 | ~1.4 | chain 1 EEGLNFPTYDGKDRVVSLTEKNFKQVLKKYDVLCLYYHESVSSDKVAQKQFQLKEIVLELVAQVLEHKDIGFVMVDAKKEAKLAKKLGFDEEGSLYVLKGDRTIEFDGEFAADVLVEFLLDLIEDPVEIINSKLEVQAFERIEDQIKLIGFFKSEESEYYRAFEEAAEHFQPYIKFFATFDKGVAKKLSLKMNEVDFYEPFMDEPIAIPDKPYTEEELVEFVKEHQRPTLRRLRPEDMFETWEDDLNGIHIVAFAERSDPDGYEFLEILKQVARDNTDNPDLSIVWIDPDDFPLLVAYWEKTFKIDLFKPQIGVVNVTDADSVWMEIPDDDDLPTAEELEDWIEDVLSGKINTEDDDNEEGDDGDDDEDDDDDDGNNSDEESNDDSDDDDE [chain 1 K161R]
